Data on 34 sequences can be found in the NTF2 design screens of Basanta et al. (2020).

The nature of this data set: protease stability score; higher = more stable; yeast display proteolysis, trypsin and chymotrypsin.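 Also: relative to predicted unfolded state with 0 unfolded-like and 1 meaning tenfold more protease.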
For the sequence “TESEKSAHEFLELFEKSIVTGDEDNLDKMADPNVQTIINGREFHGREEMVKAFREIWNIMGVKHIEIRLKQIDFQGEKISVDSRLHIDVNGKRIDHSMTIIFRKINGRWVLESINRD”, the protease stability score stood at 1.34.
“DEEDMDEVEKAIRKNDPEKMRDLADENAKASVGDNQFHGRDNVENFMKHLTDHADHVQVDSVEKHNGRVVVNAQLDINGEQIQIVIRIDVHNGKIKRFSIEVRDEEAHHFMREMVS” had a protease stability score of 0.686.
For the sequence “HEDEHELRHAVELFIWLIHTGDWHTELRLADPDVRHEVNGVENHGRELMLEDLQRIKNIRFHVRRVEIRVYGDKADLHIHGRKIVDGRHKELEIHVHIRKVNGKWLLHEVEVNIR”, the protease stability score stood at 1.59.
Take “SEREHEALRWMELIIDLWITGDEEFTHKLADPHAKYEYGDKVIHGMEEFTRIMNEWRIKRVHLHEFRFIGNFSHSNMHRRGNIDGVDVDTEITVTVVIVNGRISSISIEVR”: the protease stability score worked out at 0.751.
In the case of “TEDEELIERYVRFFLKIMETGDEKLTERMMDPDARFEIGDKEEHGREAIYEWLSKIKNIRIKIHHIKIQGDKLHLDVRFHINGKEIEVEIVSKKIDGKWMVHSVIVK”, the protease stability score came to 1.5.
The same measure for “SEEDKEVKFFMERLNHLLLTGDEELIMEMLDPNARMTINGVDTHGRETLSKLWTDKLRHLRLKQIHIHDWRSINGRADNKGHERGFVGDKEDNWESELLFVFVNGRLKSISVHLR”: 1.21; for “DEIQRLMKYVFEEWVKWFLTGDEEKFNKMVDPDVRLIVNGQHSHGREKANEMWEIYYERFDYIHEFRVHSIRIQGDKVHVDVRLIGRQGDKTIDTRTEIHLVIIDGRIKRAEVRVE”: 2.62.
The sequence “SDLNQVFRESLEHHLHALETGDWRELYRLADPNVLVIVGDKEIHGMEEWSRILEEEMRRVKGMRIEINPTDIDFQGNKVRAHTRLHVEVDGRSVETDTEHESKKVNGRWILKRLTIR” gave a protease stability score of 1.16.
For the sequence “DERERLLLEWARKFMENLITGNEELLKEMHDPHYRSHIGDKDLVGREVHHEFWEKHFRHWRIEKFDVRDYHTQGDKARLVVRIVIDVDGRRIDTEIHIHYDIIDGQLRLVTLQYE”, the protease stability score was 1.5.
The figure for “DEMDEVMERWAREYISWEKTGDEEKAKKYVDPNVKTHIDFNGRHVENIGMESEFNFFRELGITIHDIKIREIELQGDKVRIKGRIVFQIGDFEIIIERTVHIVVINGQDRHSEFRFE” is 0.194; for “DEEHEDMDKYSKLLVEMLKTGDEHIFKILADPHVRIDINGREYHGWEDWVEVVRELRIHRLHFTHMEIQGDKLHLHLKSKFSFDGRVHEIEIRIHAKKVNGRWVIKEIRII” it is 2.29; for “SEEDQHIEEALRRISKVIHTGDEDKLEELVDPHVRLDVGDKVFHGWEDFVRFMTELRFHHMHVTHLETQGDKVRVELSLDREQGDKRKEMHAHIVLEKIDGKWVVREVEMR” it is 1.35.
The same measure for “DEEHKTSYKALEQLIRVLRTGDERLMSELADPHVRMDFDGRRHHGRESMKREFLELGIDHVHLDRWNLIGNKVLSDGHMRFDGRSMRVEIIAYKVDGRWVLEEVRFE”: 0.03.
As for “DEDTEVIERSITHWMKVLETGDWEDIERNADPNARMDINGREFHGREEVSRHLREDLDRLGIERVRVEIKHYRVQGEFIDIHGILRQGEYESKIHVRASKINGKWVLESLEVV”, the protease stability score stood at 0.078.
“DEEKEDNKHFLKIHREDLHTGNEDSLKRLADPNARIHIGDKDYHGWEFWLTLSRELGVDHMHLIIDHVDLQGEKARIEGELEFTVGDKKHRIKTRLILEKIDGVWVYKSVTIE” came in with a protease stability score of 1.04.
The same measure for “DHEEEEMRDRFKVLMRALLTGDFEELIRQMDPDYRLDINGRELIGREEYRKHLEKQLKHWRWKRIDVKHVETQGDKLHARINVHGDIDGRDINTETDWHLEVIDGRVRSEKISIR”: 1.58; for “DEDEHEMRELIDKWLHNLKTGDEKRTEELMDPHAKIRTVINGVEYRFHGREMLHYLVQILGVDHMEIKHVEIRVQGNKVENHVDLTLIVGDKHVRTRMILVAEKIDGRWEVKSLFFNIE”: 1.96.
The same measure for “DEDEETAREMVEHFLQILLTGDEHNLSRLMDPNARVQIGDKTLHGRVNFVKWIEELGLDRVDVQLRRSRVIGNKIHIHGEERFNGVTMESHVDAVKINGQWHIERVEHR”: 0.629; for “DEEKRHDEKLVEDFIHNVLTGDWEKLLRNMDPHARIHVDVGNFREERVGREDWIETLARRKNARFHIESYRIYNGQVDMEVRIEQGDKEHKFKLIIKFVDGVVRSISMQVE”: 1.26.
The sequence “DHEEKEARRLLELIWKLIQTGDEHFLRELMDPHARISIDGVRLHGMEDIREFLHRYFKHHGYRWHRQRETEKHVVNGVQILFGEHDGEVDGKRDNTRSRLIFLVIDGKLQELEVNNV” returned a protease stability score of 0.855.
With “DVEEEYRHVMEEVHKHAMKTGDEQDILHLMDPNARFEVDGKIYIGREWLRRFVDILGVSRIHLHDLKIKDYRIIGNKIEVDGNIDGIVGNKRHEIDSHVISEKIDGRWIIKREKHR”, the protease stability score amounted to 0.324.
“DDKDELTRTALEIFEYLEITGDWHVVSREADPHVRIVIGDKHLHGMEIFMDLTEELGVDHSSVHSLRSQGDKIDIDIELHQGEKSFRTKVTAEKVDGRWLIKRVLFR” had a protease stability score of 1.3.
As to “SEDRENFHRFWKELLRYYLTGDEDALTRMFDPNAQMIYGDKHYHGREVLEFIHHQVDVFRSVEIESSRSINGVVIIHVRLNGEYNGQQENTEFTLVFEKINGRWRIKQVRSE”, the protease stability score stood at 1.11.
The figure for “DEEEKKWKDMVHLWFHWHVTGDFEALYENFDPNARLEQTIDGKRIEVHGREVVKEFFHRLMEELGVDHIRIERRQIQGEKVHIRGTSIFNGKERDVHIDLVVIDGRFRSARIIFN” is 1.39.
As for “DEREEHHEENARLLLEQFKTGNWDFLRSLADPNVQHNWDGRKSHGRESMVRLLIDHIRKVKGMRTEEKEVEFQGDKVILHGRVNINGREIEVIFILEVVDGRIKSLHIDFR”, the protease stability score was found to be 0.697.
The figure for “DELEELAEKIIRRLSELLLTGDFRELERFADPHTRVDINGKEFHGREFFSKLWLEMVRRFDHIEVHVHHMEIQGDKVFIDSRLHLLQGDKKEDREVLFILRKIDGRWILTVWKIR” is 2.32.
The figure for “HDREKIAITFLKFLIHWHLTGNEDHLRENIDPHVRIRIHIDGKNNHLVGMEDWYKWVREELERADHLELRLDDVDVQGDKLHSDITNIIRIDGKTIVRKVHVHLDVVNGQVKSIEIEIR” is 2.54; for “DEEKELNRHLAELWLHWWFTGDEEVITEMADPEVRFEVDGRTFHGRETLSRMISEKKRDLGADHERLRDVKVIGDKVHIESVIHVNGRELEVHIIIVVYNGRLKELRVEVK” it is 1.04; for “DEDEKIARDQLEHFFHSVQTGNEDELRRLLDPNTYIDINGRTYHGREEVVKWMVHWFEHARLRRVHIRHSRSIGDKIILDTKMNVDINGVERHLDVNVIYLKVDGKWINHSEIVK” it is 1.56.
The figure for “TKEEEESRHWSELMFHLEETGDEEILKDLADPHVKIHVNGVHLHGMEKLEEWRRRLGITKFDSHLHDFRVQGEKMHNIVHLHINGQKIDAHIIIIIVDGKITRIIIRIT” is 0.75.
The sequence “TEDDELEKWATQLVKEVLETGDERLLENLADPNVRVEIGEKDSHGREEMLKDWKHMGIDHIHFEHSEFVGDFIDIHLVIHVNGKDLKQRIIILKIDGQWFLHSVHVE” showed a protease stability score of 1.75.
The same measure for “SEEETDAKIAYHLEYELLKTGDEKMIHENLDPDARFISDVNGVEHRDHGRENFSRSMSEWLKRFGVDHMDIRHVRFFNGKIDMEVEINVNGVRIDLHLHSHKINGQWIITRVDIRID”: 1.24; for “SEDEKRAKEFDERFNENLLTGNFEKLLHLADPNAKVFYNGQENHGMHLFLKWMVELLKQIRVEDVELDDYKIYGEKIVLDVTIHTRFDGQETEWKTRIITTKVDGRWVLKTVEIR”: 1.45; for “DELDRRAKKMLRIWLEERFTGDEETVSKLADPDTRTQIHVGDKDLVSIGMESVSEFLRRMIHHWRIEHVKVKDTKVFDGVAHLHGEIHGNIDGQRVDVRLEVRVVVINGRIHSMSEEFT”: 1.61.
